The domain aggregation screens of Martell et al. (2025)

Assay: soluble fraction after stress (log2 fold change); higher = more stays soluble; pooled small domains, quantitative proteomics
Details: stress: pH 4
Summary of the method: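 How much of each domain stays soluble after acid stress, expressed as a fold change, is used to gauge aggregation propensity. Pooled custom libraries of small domains underwent pH 4 stress before high-throughput quantitative proteomics. A higher log2 value means more of the domain stayed soluble.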

Going from “HMLGSGSKEQQLVILNNILERQVQAFNLQGGQEYPMVTLKNFYNTLSKMIENAGLKNVENYFVNPDVGKQM” to “HMPRPFPELTTREHDILALIARGWSNGRIADHLSLSGKTVSNYVSNILGKLQVTARAEAAERAREAGMGQ”, the “soluble fraction (log2)” value falls from -0.0872 to -0.401.

Compared with “HMLPQYELIKQYLRHQIETGEWPIGYRTPSEPKLAEQFSVSRMTARRALQELADQGLLSRTAGSGTFVAKP”, “HMSTSIADNSSITYKVRKGDSLASIAKRHGVNINDVMRWNSVITKASQIQPGDMLTLYVRDS” is higher in “soluble fraction (log2)” value: 0.0856 for the first, no less than 0.43 for the second.

Going from “HMEVSYSLPRFHKGKNPYVDFYQVDPRTLRMRRKKFLLRGVRDAVLLEQRAADLVALLTERLHSGWNAWDD” to “HMYMTTADADMWKYVNTGRYNNDIQLMEEYKNRSMDSFEVITPEQQRKYNKAAMNLNSYYAWADPSYKPNP”, the “soluble fraction (log2)” value falls from -0.463 to -0.888.

Compared with “HMNAKKSTLQLDLLKQLLEGNKISLKDFSLSNEISIRTAQRYIEDLLEIFEKNIVKEGDFYSFIS”, “HMHDLSQQIVRYLIQQGGSSSLTDKSDPQEIYRTFKVSKKKYKQALGNLYKSKTIVITSGKIELVD” is higher in “soluble fraction (log2)” value: -1.34 for the first, 0.306 for the second.

“HMALSSQQIKDMQSWYGTKADGIWGSKSTTAAGGRDAGAAYSLYSSNKGRYSSYTDYMSYGGG” and “HMINEVVSLRDVPSFIGKAKRDVIRIAEENNLKIKINGNGYVKEQTPNPGNKYKSNQEIKVFLEPG” are within 0.2 log units of each other in “soluble fraction (log2)” value: -0.000306 for the first, 0.0157 for the second.

“HMTPQNAAAVLRYLSSGAIKGVGPSTAQRIVEKFGAESLDIIQNKPEELATIRGISLSKALAVSEEYNKQY” and “HMSFSPYLVRVSITDLNIRKGPGTNYAKTGKFTGKGVFTIVEMQTGKGSDTGWGRLKSGAGWISLDYTEKI” are within 0.2 log units of each other in “soluble fraction (log2)” value: 0.0689 for the first, 0.0318 for the second.

“HMSTESAHLGERMLNQALRAMHIEPDQITEAHWQKLIRDYGLKKKSEILTDIGLGKRQNVMVAHQLLAMG” and “HMAGLELVVTREQAGRTVKSLLRGELGISTALMGRLKRTGTGLTVNGTRVFTNAVLREGDRLAVDLDAAE” are within 0.2 log units of each other in “soluble fraction (log2)” value: -0.143 for the first, -0.0613 for the second.

Going from “HMKDIIVLGAIQAGIKKFDKIQKMTQIEPEELNSILEQLENRGFIQVAEKSGLLGKKIEILVTEKGSNEVD” to “HMLSAGETYTLGYLKASDGILFTAADGSEQTVMQRVQVRLYDNGDGTYTARLADDIAYSAVVTEDMIDK”, the “soluble fraction (log2)” value rises from -0.484 to 0.256.

Compared with “HMDYKYYIVKEPMVVKNLELPVGTRIVYFNTSLFGDSESSRPLKEKNIYQIFFPDDKPLIWGGVPVSLIER”, “HMVNEALDEFFVGLKNLYESATGKPAIAGAHFDGEPKTDFEKLMYLGYQIIRPAQAYPSALKAYERAIARS” is lower in “soluble fraction (log2)” value: -0.546 for the first, -1.15 for the second.

Going from “HMILYDDEYKGPRYRYGLHSRPLSPGAVPKGFIIHSDRPHPDFRHGTLDYPVKLPDDRAANFELIFIGEFD” to “HMKAGRNTLARQMAILEVLQKDGRALVDDLAARFETTPQTIRKDLSALAEVNQISRFHGGAALVG”, the “soluble fraction (log2)” value rises from -1.19 to -0.279.

First: HMNIEANLEDILRRAMPSAAKLILENSLNINKIIGTGKEGRITKGDVLLYLKDKNLILENILN
Second: HMEYYEDEELDRFRGRNSDQYSDAEIEEFNEILTTLRSEEVAGWIRSLQLREIALPDELKDDVILLVG
The “soluble fraction (log2)” value of the first is higher: 0.0861 for the first, -1.51 for the second.

Going from “HMSDTVDITKLGIAGKTKEAAEALLKENGFSVESKEENSDTIEKGKVISYSPTKPKNGDRITLIVSSGKK” to “HMGRKIDDPSSMTGAEKAAVILLALGDEQRQLWEMMDDEEIRVVSQAMVNLGNVTSGAVEKLIMEFVGSMS”, the “soluble fraction (log2)” value falls from 0.301 to -0.425.

First: HMRTPTGVQAYLSSGLIKGIGEKTAAAIVDKFGTDALSVIETDPERLLEIPGITPNKLREILESYNQH
Second: HMGQLTDKQILLFSGKLAYEPTFASKYSKAGESYDDFIIRISGDLTDPKKIKEYSPYLKELGF
The “soluble fraction (log2)” value of the first is higher: 0.174 for the first, -0.954 for the second.

First: HMSNLENSLNESLSLLKSNKYNEALEILKKIEIEDSRVFFLLGTIYSVMKNINLGEEFLIKASK
Second: HMQLPDLDEIRQMRKRLDLSQRELAALAGVSQSLIAKIEKGSIDPSYDNVRKIFNAFENILKKRALE
The “soluble fraction (log2)” value of the first is lower: -1.32 for the first, -0.495 for the second.

First: HMKSLLTARQLEVFEIARNKGYWTTPRKISLVELSKLLDISKSTLSVLLHSIEGKVMEEFYEEIRQ
Second: HMDTRQFWEQWVADEIRTFEHKDRKQLFGWFEGNKPKLGQMKKLGYGDLLTKVQTSWDEIYQQKE
The “soluble fraction (log2)” value of the first is lower: 0.0209 for the first, 0.29 for the second.

First: HMAIDWVQIKAEYISGTMSASKLAEKHGVSVYAIRKRSGKERWQELRRQNQSETANKIAEKI
Second: HMQSEISRIGRILKERRLQLGYTQEYAAEKAGISYSYYTKIERGQQLPSLEVAMVLSKTFSLSMDRWL
The “soluble fraction (log2)” value of the first is higher: -0.0638 for the first, -0.599 for the second.

Going from “HMRIEYYDDEELDRYIGTPASGYREAAVEEFREILLTLDADDVPGWVRSLQLRGIEFPESLRPELYL” to “HMARAESYGDIARLEQLLDEHANIAALDPGKLPAVRQQIWTLMRAARMDHDLGLAERPEDDSFDDMLLHV”, the “soluble fraction (log2)” value rises from -1.5 to -0.0475.

Compared with “HMEEFLSFIADILEVDKNTLTLETSQDDVETWDSLMQLRLLGEIEAKYGVMIPMERISTIKKLNDFYQYIK”, “HMKGLDRATNKALLLKHIIDNGSTGTRFSELRQVLPSLTRGSISSLLIELRSEGKIHSIGVTRNARWYPTE” is higher in “soluble fraction (log2)” value: -1.76 for the first, -0.309 for the second.

“HMRSAKEYKAIREEIYRFIGAYITKHVYAPSNKEIAEAVGISGTTVHRHLIDMIDEGILETD” and “HMRADYVGGLDPAGDNFLALRTGPGSGYAMILPMGPGTFVTVLRRNGKWLLVELEDGTRGWAYGSYILG” are within 0.2 log units of each other in “soluble fraction (log2)” value: -1.29 for the first, -1.16 for the second.

Going from “HMIESVMVGIKELLGDTIDQKYEKYIRLGGIPSDEVDEFNSVFSAYEKVNGNHNGKKKYDYVMNNLPIIPV” to “HMQNNKITIYISGAVNRPGIVTIESDKRLYDAVELLGGTTKEADLNGVNLSVRLEDEQHYIIPKIGEA”, the “soluble fraction (log2)” value rises from -1.54 to -0.491.

Going from “HMTNQEFNAAFKPFLDYFPTTEMTKEKINIYYLALSDLSKEQLGSAFISMVKNRVYKNFPQVAEIRQYATN” to “HMAEMLQDVLNMLSAKDREILVRYYYYYESVKQVAAEMQMSESAVKMRMSRARKKMQQELIDKG”, the “soluble fraction (log2)” value falls from -0.456 to -0.704.

“HMAAIPEQVSEEVVSAVKASGIDPGKVTKEQWTSLLKGRRTALGSSSGKLFMLSKAPVGYTLKAVNA” and “HMETITDRLNRRSLELNVSQADIIRTTGAGRGTVSGWFSGANAPSAKYLESLAVALKTSTTWLLSGKD” are within 0.2 log units of each other in “soluble fraction (log2)” value: -0.000834 for the first, 0.0972 for the second.

First: HMAVLGIQPVFHRSTGQTVYKSSVNTAKGRVYLGLFPTLTEALEIKLKYMQEHGHTKGITNLTNKLKEL
Second: HMNSHKIIDRLNQMITEKDLSEEMPAITEAFKNNERSAEDLKKYVAENLSKKLNAEEREKFVSLILQYRN
The “soluble fraction (log2)” value of the first is higher: 0.22 for the first, -0.338 for the second.

Going from “HMGQVPPLTRRETEIARLVSRGLSNKEIASTLVISPRTAEGHVEHILDKLGFSSRTQIATWLNEQTRNGK” to “HMTVSKLKVINYTIRNGDSLWTISRKFNVTVDKVKEWNGLSDRTLLQPGQKLTLYVDPTIQISH”, the “soluble fraction (log2)” value falls from 0.313 to -0.406.

“HMASPEIAFLNKFYQLSNTVNEISVMKIVKNYQEKYQQRISIEQMAKTLKTMGYAVRNNIISNIEEAPV” and “HMSGIESIVIPLKGLDFDMISSTLTPQLKQAIKYDKQSDSIILVGTNAKVNIIAKQVNAMVEVYKLKT” are within 0.2 log units of each other in “soluble fraction (log2)” value: 0.0906 for the first, -0.0326 for the second.

“HMDVLKVFSHNVRRYRTQLGLSQETVAFRTGLHRTYISAVERGKRSISLDNIQKIADALEVETYLLFI” and “HMQEPIAVPDFINKSAVDVLVNPVFTQNFKLVSEDVYDDKVPEGYIVGQSVKSDTLVQPGTEIVIYV” are within 0.2 log units of each other in “soluble fraction (log2)” value: 0.22 for the first, 0.0962 for the second.

Compared with “HMKPKDILLPNFTNLTLDEAKAKAEEVKLNLNVSEEKYDVQIEEGKIISQDPKYQPNYTVKEGSTVNVVVS”, “HMNNEISINGNKIYFNKNISKVFIYDISGKLIKHKNNFNNNFIDLSEFNSAFYIIKALDINENYTTKKIFL” is lower in “soluble fraction (log2)” value: 0.0508 for the first, -0.597 for the second.

For “HMANSLLVTAQAGGQKLFNFLKRSLHAENNEIHRWIRTGQVRINKKRTKAFDIVHENDEIRIPPFALNR”, the “soluble fraction (log2)” value was -0.053.
